By Kd is commonly meant the constant that tells how readily two partners part at equilibrium. Read a low Kd as a tighter complex.

In this experiment the test system is C1234 DNA target. Nature of the experiment: In vitro binding assay, fluorescence anisotropy of fluorescein-labeled C1234 duplex. The method, then:
FIG. 4: Spectrofluorimetric titration of fluorescein-labeled C1234 by I-Cre I wild type. 25 nM of C1234 duplex was incubated with increasing concentrations of I-Cre I [from 0 to 400 nM, only 0-80 nM shown] in binding buffer (10 mM Tris-HCl, 400 mM NaCl, 10 mM CaCl2, 10 mM DTT, pH8) at 25° C. After 30 minutes incubation, the fluorescence anisotropy of the mixture was recorded with a Pherastar Plus (BMG Labtech) operating in fluorescence polarization end point mode with excitation and emission wavelengths set to 495 and 520 nm respectively. Normalized fluorescence anisotropy is plotted as a function of active I-Cre I concentration. Apparent dissociation constant were determined by fitting raw data by an hyperbolic function (Ax=(A∞*[Meganuclease])/(Kd+[Meganuclease]) with Ax, the fluorescence anisotropy value obtained at a given meganuclease concentration, A∞, the fluorescence anisotropy value obtained at saturating concentration of meganuclease and Kd the dissociation constant of the equilibrium studied).
Fluorescein labeled C1234 oligonucleotides were synthesized and HPLC-purified by Eurogentec. To prepare C 1234 duplex corresponding to I-Cre I double strand DNA wild type target, C1234 forward (SEQ ID NO: 31, “a” strand below) labeled with Fluorescein on its 5′ end was mixed with 1 equivalent of C1234_reverse (SEQ ID NO: 32, “b” strand below) in 100 mM Tris-HCl, 50 mM EDTA, 150 mM NaCl, pH8. The mixture was heated to 95° C. for 2 min and then cooled down to 25° C. over 1 hour. C1234 duplex was eventually purified by anion exchange chromatography using a miniQ PE column (GE healthcare) pre-equilibrated with buffer A (20 mM Tris-HCl, pH7.4). Single stranded oligonucleotides and other contaminants were first discarded using a 0 to 360 mM NaCl step gradient and elution of pure C1234 duplex was performed with a 360-1000 mM NaCl linear gradient (5 column volumes). C 1234 duplex and fluorescein final concentrations were assessed by spectrophotometry using their respective extinction coefficients ε260nm=62900 M^−1 cm^−1 and ε495nm=83000 M^−1 cm^−1. As expected, a ratio [C1234 duplex]/[fluorescein]˜1 was obtained. The same procedure was used to prepare the different methylated forms of C 1234 duplex (C 1234_Me full composed of SEQ ID NO: 35+SEQ ID NO: 38, C1234_Me-6a/-5b composed of SEQ ID NO: 33+SEQ ID NO: 36, C1234_Me-3a/-2b composed of SEQ ID NO: 34+SEQ ID NO: 37, C1234_Me-3a composed of SEQ ID NO: 34+SEQ ID NO: 32, C1234_Me-2b composed of SEQ ID NO: 31+SEQ ID NO: 37, respectively where “a” and “b” designate each of the DNA strands; for example C1234 Me-6a/-5b is a duplex with methylations at position −6 on strand “a” and at position −5 on strand “b”, respectively) and the random target corresponding to a stretch of 12 GA repeats, (forward, SEQ ID NO: 39 and reverse, SEQ ID NO: 40). To investigate the binding of I-Cre I to C1234 duplex, 25 nM of C1234 duplex was incubated with increasing concentrations of I-Cre I (from 0 to 400 nM) in binding buffer (10 mM Tris-HCl, 400 mM NaCl, 10 mM CaCl2, 10 mM DTT, pH8) at 25° C. After 30 minutes incubation, the fluorescence anisotropy of the mixture was recorded with a Pherastar Plus (BMG Labtech) operating in fluorescence polarization end point mode with excitation and emission wavelengths set to 495 and 520 nm respectively. Apparent dissociation constants were determined by fitting raw data by an hyperbolic function (Ax=(A∞*[Meganuclease])/(Kd+[Meganuclease]) with Ax, the fluorescence anisotropy value obtained at a given meganuclease concentration, A∞, the fluorescence anisotropy value obtained at saturating concentration of meganuclease and Kd the dissociation constant of the equilibrium studied).

B1: I-CreI: wild-type I-CreI meganuclease (… homing endonuclease), SEQ ID NO: 1, recombinant Cterm His-tag (protein, listed as Chlamydomonas reinhardtii)
chain: MNTKYNKEFLLYLAGFVDGDGSIIAQIKPNQSYKFKHQLSLTFQVTQKTQRRWFLDKLVDEIGVGYVRDRGSVSDYILSEIKPLHNFLTQLQPFLKLKQKQANLVLKIIEQLPSAKESPDKFLEVCTWVDQIAALNDSKTRKTTSETVRAVLDSLSEKKKSSP
modifications: C-terminal His-tag
Take B1: where the note is “C1234 Me-5b/-2b”, the “affinity compared with unmethylated C1234” value was “much lower affinity”. The dissociation constant (Kd) was above 1000 nM (C1234_Me full (fully methylated)); 40.8 nM (C1234_Me-2b); 24 nM (C1234_Me-5b); above 1000 nM (C1234_Me-5b/-2b); at most 2.5 nM (C1234_Me-6a/-3a); at most 2.5 nM (unmethylated C1234). Moreover, under “C1234_Me full vs unmethylated”, the “affinity for fully methylated C1234 lower than for unmethylated C1234” value was “at least 400 times”. The “factor by which methylation affected affinity with respect to unmethylated C1234” value (C1234 methylated in position −2b) is at most 10 and the “factor by which methylation affected affinity with respect to unmethylated C1234” value (C1234 methylated in position −5b) was at most 10.

These data come from patent US20130196320A1, “METHOD FOR IMPROVING CLEAVAGE OF DNA BY ENDONUCLEASE SENSITIVE TO METHYLATION” (CELLECTIS, priority 2010, published 2013).
